Tests used:
[1] = test system: ERK1 and ERK2 MAP kinases; assay: FGF2-stimulated MAP kinase phosphorylation, Western blot; assay type: cell-based
Procedure: Since activation of MAP kinases by FGF2 is one of the earliest mitogenic signaling events within cells (Maher), the effects of LO on FGF2-stimulated MAP kinase phosphorylation were tested by Western blot analysis using an antibody specific for phospho-extracellular signal-regulated kinases 1 and 2 (ERK1 and ERK2). The amount of total ERK1 and ERK2 MAP kinases within the same cell extracts was determined by using an antibody that recognizes both the phospho- and non-phospho-forms of ERK1 and ERK2. […] Cell extracts were prepared and equal amounts of proteins (25 μg) were analyzed by 10% SDS-PAGE. Immunoblotting was performed using antibodies specific for the active forms of ERK1 and ERK2 (A) and total ERKs (B).

[2] = test system: growth-arrested Swiss 3T3 cells; assay: FGF2-stimulated cell cycle progression, FACS analysis; assay type: cell-based; conditions: 5 ng FGF2/ml (0.28 nM FGF2), 20 h
Procedure: The activity of native and LO-oxidized FGF2 on cell cycle progression was evaluated by using fluorescence activated cell sorting (FACS) analysis (Darzynkiewicz et al.). Swiss 3T3 cells were growth-arrested by incubation in 0.3% fetal bovine serum (FBS)/Dulbecco's Modified Eagle's Medium (DMEM) for 3 days. As depicted in FIGS. 6A-6C, the prepared growth-arrested cells were treated for 20 h at 37° C. with or without FGF2, LO, BAPN or their combinations as indicated. After treatment, cells were washed, suspended by treatment with trypsin, washed again and fixed in 0.5% formaldehyde/0.1% Triton X-100/PBS for 15 minutes on ice followed by incubation of samples in 10 μg propidium iodide and 20 units RNAse per ml of PBS for 60 minutes in the dark for DNA staining. The fluorescence intensities of each sample of 10,000 cells in G1, S and G2/M phases were measured by flow cytometry at the FL2 setting of the fluorescence activated cell sorting (FACS) instrument (Becton-Dickinson Corp.). […] LO was presented at 10 nM, FGF2 at 5 ng ml^−1 and BAPN at 100 μM. Data represent the means (+sd) of three separate experiments each assessed with duplicate dishes.

[3] = test system: FGF2 nuclear localization in Swiss 3T3 cells; assay: FGF2 nuclear localization, immunochemical staining; assay type: cell-based; conditions: 0.28 nM FGF2 for 1 h
Procedure: After endocytosis, a fraction of exogenous FGF2 can enter the nucleus of a variety of cell types in a cell cycle-dependent manner (Mason; Rifkin et al.; Prats et al.; Stachowiak et al., 1996; Arese et al.; Baldin et al.). Thus, the possibility that oxidation of FGF2 by LO affects the nuclear localization of this growth factor was tested by using immunochemistry. In FIGS. […]

lysyl oxidase (LO) = molecular target: T1, lysyl oxidase (LO) (Bos taurus, UniProt P33072); assay: LO-dependent H2O2 release, horseradish peroxidase-coupled fluorescence assay (substrate potential for LO); assay type: biochemical; conditions: for substrate of LO (in words): factor as sole substrate, LO-dependent H2O2 release in vitro; for molar ratio of H2O2 released per mole of PDGF-AB at the plateau: 0.11 μM LO, 0.46 μM PDGF-AB
T1 construct: per mature LO molecule (32 kD); from tissue
T1 sequence (P33072 170-418): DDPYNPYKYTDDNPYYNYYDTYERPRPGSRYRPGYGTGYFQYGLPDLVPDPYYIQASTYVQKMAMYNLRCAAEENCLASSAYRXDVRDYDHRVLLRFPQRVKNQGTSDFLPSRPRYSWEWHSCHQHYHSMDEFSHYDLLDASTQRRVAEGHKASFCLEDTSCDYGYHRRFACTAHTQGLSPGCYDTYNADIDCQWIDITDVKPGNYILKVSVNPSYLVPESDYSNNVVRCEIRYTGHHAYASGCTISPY
Procedure: The oxidation of a primary amine substrate by LO yields stoichiometric amounts of the corresponding aldehyde, hydrogen peroxide and ammonia, as shown: RCH2NH2+O2+H2O→RCHO+H2O2+NH3 (Kagan, 1986). To assess the substrate potential of FGF2, LO-dependent H2O2 release was monitored in assays using FGF2 as the sole substrate, using both the optimum temperature for LO activity of 55° C. and the physiological temperature of 37° C. (Trackman et al., 1981).
LO reaction with FGF2 as a substrate was assessed by a horseradish peroxidase-coupled fluorescence assay for H2O2 production. Reaction mixtures contained 0.25 mg of sodium homovanillate(HVA), 40 μg of HRP, and FGF2 at doses as indicated below in 0.05 M sodium borate buffer, pH 8.2, in a final volume of 2 ml. Assays were initiated by the addition of LO to reaction mixtures. H2O2 release was continuously monitored at excitation and emission wavelengths of 315 and 425 nm, respectively, at a constant temperature of 55° C. or 37° C., as specified, in the thermostatted cuvette chamber of an SLM Aminco Bowman Series 2 Luminescence Spectrometer. All activity data were corrected for background rates of H2O2 release determined in complete assay mixtures supplemented with 200 μM BAPN, an irreversible inhibitor of LO. In FIG. 4, solid curves represent the time course of H2O2 release at 55° C. in the reaction of 0.16 μM LO with 0.23 (a), 0.45 (b) and 0.9 (c) μM FGF2, respectively. Dotted curve (d) represents the time course of H2O2 release in the reaction of 0.16 μM LO with 0.9 μM FGF2 at 37° C. The same data were obtained from three separate experiments.
Using the fluorometric assay (Trackman et al., 1981) to monitor LO-dependent H2O2 release in vitro, the substrate potential of other growth factors was also assessed. Major members of the FGF family tested included FGF 1, 4, 5, 6, 7 and EGF (note: All factors are human recombinant forms purchased from R & D Systems, Inc., Minneapolis, Minn.).
A human recombinant disulfide-linked dimer of VEGF165 (MW: 42 kDa)(R & D Systems) as a sole substrate was tested by using the standard in vitro LO catalysis assays as described above for FIG. 4 (Trackman et al., 1981). Curves represent the time course of H2O2 release at 55° C. (a) or 37° C. (b) in the reaction of 0.10 μM LO with 0.45 μM VEGF165. All activity data were corrected for background rates of H2O2 release determined in complete assay mixtures supplemented with the same amounts of LO preincubated with 100 μM BAPN for 15 min at 37° C. The same data were obtained from three separate experiments.
The standard in vitro LO catalysis assays as described above for FIG. 4 (Trackman et al., 1981) using human recombinant PDGF-AB (R & D Systems) as a sole substrate was tested. […] In FIG. 19, curves represent the time course of H2O2 release at 55° C. (a) and 37° C. (b) in the reaction of 0.11 μM LO with 0.46 μM PDGF-AB, respectively. All activity data were corrected for background rates of H2O2 release determined in complete assay mixtures supplemented with the same amounts of LO preincubated with 100 μM BAPN for 15 minutes at 37° C. The same data were obtained from three separate experiments.
To analyze the substrate potential of Tat, the standard in vitro LO catalysis assays as described in FIG. 4 (Trackman et al., 1981) was performed at the optimum temperature of 55° C. and at the physiological temperature of 37° C. A recombinant Tat with 9 lysines in a total of 86 amino acids was used as a sole substrate. FIG. 12A represents a dose and temperature-dependent response. Curves represent the time course of H2O2 release at 55° C. (solid) or 37° C. (dotted) in the reaction of 0.10 μM LO with 0.22 (a and d), 0.43 (b and e) and 0.85 (c and f) μM Tat, respectively. All activity data were corrected for background rates of H2O2 release determined in complete assay mixtures supplemented with the same amounts of LO preincubated with 100 μM BAPN for 15 min at 37° C. […]

[4] = test system: growth-arrested Swiss 3T3 cells; assay: PDGF-AB-stimulated cell cycle progression, FACS analysis; assay type: cell-based; conditions: 15 ng PDGF-AB/ml (0.56 nM), 20 h
Procedure: Growth-arrested Swiss 3T3 cells were incubated for 20 h at 37° C. with or without PDGF-AB, LO, BAPN or their combinations as indicated. After incubation, FACS analysis was carried out to characterize the cell cycle progression under different conditions as described in FIG. 6. FIG. 20A represents a dose response of PDGF-AB in cell cycle progression. FIG. 20B represents the LO inhibition of PDGF-AB-stimulated cell cycle progression (the control represents cells treated with 15 ng ml^−1 PDGF-AB in the absence of added LO). FIG. 20C represents the effects of inactivation of LO by BAPN on PDGF-AB-stimulated the cell cycle progression. LO: 15 nM, PDGF-AB: 15 ng ml^−1, BAPN: 100 AM. Data represent the means (±sd) of three separate experiments each assessed with triplicate dishes.

Row | maximum H2O2 released per mole of FGF2 (lysyl oxidase (LO); 37° C., 0.16 μM LO, 0.9 μM FGF2) | molar ratio H2O2 released per mole of FGF2 at the plateau (lysyl oxidase (LO); 55° C., 0.16 μM LO, 0.23 μM FGF2) | molar ratio H2O2 released per mole of FGF2 at the plateau (lysyl oxidase (LO); 55° C., 0.16 μM LO, 0.45 μM FGF2) | molar ratio H2O2 released per mole of FGF2 at the plateau (lysyl oxidase (LO); 55° C., 0.16 μM LO, 0.9 μM FGF2) | molar ratio H2O2 released per mole of FGF2, mean±standard deviation (lysyl oxidase (LO); 55° C., 0.16 μM LO, mean over 0.23, 0.45 and 0.9 μM FGF2) | substrate of LO (in words) (lysyl oxidase (LO)) | molar ratio of H2O2 released per mole of PDGF-AB at the plateau (lysyl oxidase (LO); 37° C.) | molar ratio of H2O2 released per mole of PDGF-AB at the plateau (lysyl oxidase (LO); 55° C.) | Compound | MAP kinase activation by FGF2 ([1]; 200 μM genistein) | relative number of cells entering the S-M phases versus control (maximum effect) [2] | nuclear FGF2 staining [3] | tyrosine phosphorylation of 42- and 44-kDa ERKs ([1]; 5 ng/ml FGF2, 10 min, versus control) | cells entering the S-M phases versus control (maximum effect) [4]
1 |  |  |  |  |  |  |  |  | O=c1c(-c2ccc(O)cc2)coc2cc(O)cc(O)c12 [genistein, reference compound] | inhibited |  |  |  | 
2 | 5.3 moles of H2O2 per mole of FGF2 | 14.1 | 14.6 | 14.2 | 14.3±0.3 | productive substrate for LO |  |  | FGF2: 18 kDa human recombinant FGF2, 14 lysine residues |  | 4.7 fold | significantly increased nuclear staining | markedly increased | 
3 |  |  |  |  |  | substrates of LO | 3.0 | 19.5 | PDGF-AB: 27 kDa human recombinant PDGF-AB heterodimer, 21 lysine residues |  |  |  |  | 3.3 fold

— US20030211076A1, “Compositions and methods for treatment of proliferative disorders” (priority 2003, published 2003)
